Experimental data taken from patent US20090253622A1, “USE OF TLR3 AGONISTS FOR THE TREATMENT OF NEURODEGENERATIVE DISORDERS” (Nederlandse Organisatie voor toegepast - …, priority 2006, published 2009).
Entries after “also recorded” stand apart in the source; their conditions may differ.

Legend:
[1] = target: T1, TLR2 (Homo sapiens, UniProt O60603); assay: HEK293 transfectant cells, TLR2 activation; format: cell-based; settings: at levels of at least 50 μg/mL
T1 construct: expressed in transfected cells; host or cells: HEK293
Protocol: (§1) Additional control experiments using murine astrocytes or transfected HEK293 cells were performed essentially as described previously by several other research groups.

[2] = test system: astrocytes from TLR3-deficient mice; assay: IL-6 release by astrocytes from TLR3-deficient mice (ELISA); format: cell-based; settings: TLR3-deficient mouse astrocytes, 48 h
Protocol: (§2) Astrocytes were cultured in poly L-lysine coated 96 well-flat-bottom plates at 1×10^4 cells per well in 100 l DMEM/HAM-F10 medium containing 10% FCS and antibiotic supplements for 24 h to obtain post-confluent cultures. Recombinant human stathmin was next added to astrocytes, and parallel control stimuli were performed with either poly I:C, an established TLR3 agonist, or ultrapure lipopolysaccharides, established TLR4 agonists. After addition of these stimuli astrocytes were incubated for another 48 h. Astrocyte culture supernatants were subsequently collected and using a commercial ELISA kit levels of IL-6 were determined, as a marker for TLR-mediated activation of murine astrocytes.

[3] = test system: TLR3; assay: CXCL8 release by cultured human astrocytes (ELISA); format: cell-based
Protocol: Cos-7 cells (25,000 cells per well in 96-well plates) were transfected for 5 h with 768 pools of cDNA derived from human brain tumours (5 pooled tumours including meningioma, oligodendroglioma, astrocytoma grades II and IV, and medulloblastoma; NCI CGAP Brn35; Invitrogen) using lipofectamine, after which cells were thoroughly washed. Transfection with green-fluorescent protein-encoding cDNA was used as an internal control for transfection efficiencies. After continued culture of the transfected cells for 48 h, 75 μL of each culture supernatant was harvested and added to cultured human astrocytes seeded at 1,000 cells per well in 75 μL. After 48 h of culture, supernatants were harvested and evaluated for CXCL8 release using ELISA. Stimulation of astrocytes with poly I:C served as positive controls for CXCL8 release in all cases, non-transfected Cos 7 culture supernatants as negative controls.
(§3) Purified recombinant stathmin was exposed to two different conditions that differentially affect the extent of helix formation within the protein chain. One part of the protein preparation was exposed to 5% trifluoroacetic acid (TFA) in water for 1 h at 37° C., strongly acidic conditions that tend to disrupt an alpha helix. In parallel, another part was exposed for 1 h at 37° C. to 5% of the helix-promoting solvent trifluoroethanol (TFE) in phosphate-buffered saline (PBS). After exposure to these different conditions, both protein samples were extensively dialysed for 48 h against several changes of PBS. Next, the samples were analyzed by […] circular dichroism spectroscopy that allows calculation of helical content on the basis of elipticity in the absorption of circularly polarized light. In both cases, another part of the dialyzed sample was tested in parallel for induction of TLR3-mediated release of CXCL8 (IL-8) in human astrocytes as described elsewhere in this application.

[4] = purified recombinant protein in buffers similar to culture media; Steinmetz and colleagues; cited from earlier work
[5] = test system: plasmacytoid dendritic cells (DC); assay: CXCL8 accumulation in culture of human mature plasmacytoid dendritic cells; format: cell-based; settings: 24 h, varying doses, two donors
Text: (§4) Peripheral blood mononuclear cells (PBMC) were isolated from two healthy blood donors and from part of the cells, CD14^+ monocytes were isolated by positive selection using magnetic beads coated with an antibody against CD14. The purified CD14^+ monocytes were subsequently cultured for 5 days in the presence of IL-4 and granulocyte-macrophage colony stimulating factor (GM-CSF). These growth factors induce differentiation of monocytes into pre-dendritic cells (pre-DC) within this time frame. At this stage part of the pre-DC culture was stimulated with a mixture of IL-1β and TNF-α for another 2 days in culture, thus stimulating final maturation of the cells into plasmacytoid dendritic cells (DC).
(§5) Using this differentiation method, separate populations of PBMC, pre-DC and DC were generated and after washing of the cells to remove all previously used stimuli, cells were subsequently re-cultured in fresh medium and tested for their response to either poly I:C, stathmin or LPS. Accumulation of CXCL8 in the culture medium over a 24-h period was used as a measure for cellular activation.

[6] = target: T2, TLR4 (Homo sapiens, UniProt O00206+Q9Y6Y9); assay: HEK293 transfectant cells, TLR4 activation; format: cell-based; settings: at levels of at least 50 μg/mL
T2 construct: expressed in transfected cells; host or cells: HEK293
Protocol: as §1

[7] = test system: peripheral blood mononuclear cells (PBMC); assay: CXCL8 accumulation in culture of human PBMC; format: cell-based; settings: 24 h, varying doses, two donors
Text: as §4, §5

[8] = Circular dichroism spectroscopy, helical content; format: physicochemical; settings: dissolved in 50% TFE in PBS, without dialysis
Protocol: as §3, with “[…] […]” for “In parallel, another part was exposed for 1 h at 37° C. to 5% of the helix-promoting solvent trifluoroethanol (TFE) in phosphate-buffered saline (PBS). After exposure to these different conditions, both protein samples were extensively dialysed for 48 h against several changes of PBS.”

[9] = test system: TLR3; assay: IL-6 release by astrocytes from wild-type mice (ELISA); format: cell-based; settings: wild-type mouse astrocytes, 48 h
Protocol: as §2

[10] = test system: human microglia; assay: CXCL8 accumulation in cultures of human microglia (ELISA); format: cell-based; settings: microglia from gray or white matter, 24 h
Protocol: Using either gray matter samples or white matter samples of post mortem adult human brains collected within 9 h after death, several cultures of microglia were produced as previously described. Microglia were subsequently stimulated with different TLR agonists and after 24 h accumulation of CXCL8 in the culture medium was quantified using a commercial ELISA assay, as a measure of TLR-mediated activation.

[11] = test system: immature human plasmacytoid dendritic cells (pre-DC); assay: Antibody-array profiling of 40 cytokines and chemokines in human pre-DC supernatants; format: cell-based; settings: 50 μg/ml, 48 h
Protocol: To examine the effects of stathmin on the maturation and cytokine production of immature human plasmacytoid dendritic cells (pre-DC), such pre-DC were generated from samples of peripheral blood mononuclear cells by maturation of purified CD14^+ monocytes using GM-CSF and IL-4. The cells were subsequently exposed to 50 μg/ml stathmin and after 48 h, culture supernatants were collected and the accumulation of 40 different cytokines ands chemokines was evaluated by antibody-array profiling using a commercially available antibody array.

[12] = test system: pre-dendritic cells (pre-DC); assay: CXCL8 accumulation in culture of human pre-dendritic cells; format: cell-based; settings: 24 h, varying doses, two donors
Text: as §4, §5

T2 sequence (O00206 24-839, species assumed): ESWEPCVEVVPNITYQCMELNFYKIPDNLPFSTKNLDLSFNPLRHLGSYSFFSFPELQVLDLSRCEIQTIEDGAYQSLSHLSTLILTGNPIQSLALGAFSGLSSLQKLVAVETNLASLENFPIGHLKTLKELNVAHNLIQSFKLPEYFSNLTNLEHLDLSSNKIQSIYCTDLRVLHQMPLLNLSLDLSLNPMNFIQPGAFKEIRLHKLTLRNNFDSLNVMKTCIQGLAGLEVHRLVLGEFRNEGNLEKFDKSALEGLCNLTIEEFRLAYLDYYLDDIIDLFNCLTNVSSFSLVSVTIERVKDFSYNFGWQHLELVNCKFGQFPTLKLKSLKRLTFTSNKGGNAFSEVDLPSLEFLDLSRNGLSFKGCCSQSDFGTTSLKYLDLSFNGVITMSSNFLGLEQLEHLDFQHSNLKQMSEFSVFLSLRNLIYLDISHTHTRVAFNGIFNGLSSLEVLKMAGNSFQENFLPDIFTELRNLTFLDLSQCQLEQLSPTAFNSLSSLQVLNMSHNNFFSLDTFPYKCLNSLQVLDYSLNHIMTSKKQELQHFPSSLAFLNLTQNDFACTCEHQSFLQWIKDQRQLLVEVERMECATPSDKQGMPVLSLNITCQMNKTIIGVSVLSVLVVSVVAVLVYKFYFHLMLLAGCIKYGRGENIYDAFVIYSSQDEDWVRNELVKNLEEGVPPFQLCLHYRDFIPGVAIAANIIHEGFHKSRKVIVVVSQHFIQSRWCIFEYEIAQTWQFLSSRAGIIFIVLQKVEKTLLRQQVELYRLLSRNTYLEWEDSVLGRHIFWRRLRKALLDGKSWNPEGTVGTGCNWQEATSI
T2 sequence (Q9Y6Y9 17-160 limits assumed, species assumed): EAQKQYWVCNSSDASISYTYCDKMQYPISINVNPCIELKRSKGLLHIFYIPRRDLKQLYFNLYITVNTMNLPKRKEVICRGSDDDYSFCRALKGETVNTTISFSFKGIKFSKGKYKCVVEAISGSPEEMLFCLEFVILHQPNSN
T1 sequence (O60603 21-784, species assumed): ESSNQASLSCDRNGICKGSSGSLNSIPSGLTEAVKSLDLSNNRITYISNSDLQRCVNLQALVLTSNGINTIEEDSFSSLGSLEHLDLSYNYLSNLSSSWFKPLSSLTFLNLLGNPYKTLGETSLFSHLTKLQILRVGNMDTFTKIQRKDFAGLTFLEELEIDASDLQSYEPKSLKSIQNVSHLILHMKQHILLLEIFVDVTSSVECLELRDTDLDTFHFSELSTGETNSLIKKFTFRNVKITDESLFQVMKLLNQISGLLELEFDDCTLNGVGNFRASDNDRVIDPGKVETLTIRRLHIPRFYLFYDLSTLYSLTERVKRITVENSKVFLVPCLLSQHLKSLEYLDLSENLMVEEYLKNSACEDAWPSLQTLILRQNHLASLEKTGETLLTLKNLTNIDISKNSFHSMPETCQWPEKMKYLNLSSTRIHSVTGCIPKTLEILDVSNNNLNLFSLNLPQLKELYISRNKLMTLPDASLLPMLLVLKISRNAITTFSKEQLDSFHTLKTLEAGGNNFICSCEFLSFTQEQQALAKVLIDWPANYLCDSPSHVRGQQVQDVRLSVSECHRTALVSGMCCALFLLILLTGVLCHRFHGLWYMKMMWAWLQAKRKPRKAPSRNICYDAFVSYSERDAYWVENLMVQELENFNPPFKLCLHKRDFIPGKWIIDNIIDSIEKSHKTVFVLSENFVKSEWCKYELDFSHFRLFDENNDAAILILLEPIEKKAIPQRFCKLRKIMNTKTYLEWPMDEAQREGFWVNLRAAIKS

B1: stathmin: cytosolic phosphoprotein of 149 amino acids (SEQ ID NO: 1); purified recombinant human stathmin from a commercial source (protein)
chain: MASSDIQVKELEKRASGQAFELILSPRSKESVPEFPLSPPKKKDFSLEEIQKKLEAAEERRKSHEAEVLKQLAEKREHEKEVLQKAIEENNNFSKMAEEKITHKMEANKENREAQMAAKLERLREKDKHIEEVRKNKESKDPADETEAD
modifications: Human; (44)..(138) Stathmin-like alpha helix domain
notes: purified recombinant human stathmin from a commercial source
response of HEK293 transfectant cells via TLR2 [1]: does not contain any endotoxin contaminants that trigger responses
IL-6 release [2]: completely absent; also recorded: fully abrogated
astrocyte CXCL8 response, dose dependence ([3]; at 100 μg/mL): still not maximal
CXCL8 release by cultured human astrocytes (in words) ([3]; doses between 5 and 100 μg/mL, four donors): marked CXCL8 release
stathmin-induced response under TLR3-directed small interfering RNA ([3]; human astrocytes, three TLR3 siRNAs): largely—in one case completely—inhibited
fraction structurally ordered into alpha helix [4]: 40-60%
CXCL8 accumulation in the culture medium [5]: substantial increase in CXCL8 accumulation
response of HEK293 transfectant cells via TLR4 [6]: does not contain any endotoxin contaminants that trigger responses
CXCL8 accumulation in the culture medium [7]: substantial increase in CXCL8 accumulation
helical content [8]: 98%
IL-6 release [9]: dose-dependent IL-6 induction; also recorded: marked IL-6 release
CXCL8 accumulation in the culture medium [10]: enhanced CXCL8 accumulation
reduction of levels of the p70 subunit of IL-12 [11]: two-fold
CXCL8 induction ratio ([11]; vs untreated control): > 1.5
IL-10 induction ratio ([11]; vs untreated control): > 1.5
MCP-1 induction ratio ([11]; vs untreated control): > 1.5
p40 subunit of IL-12 induction ratio ([11]; vs untreated control): > 1.5
CXCL8 accumulation in the culture medium [12]: substantial increase in CXCL8 accumulation
